Columns and labels:
[1] = target: PD-L1 IgV-TIM-3 chimera with M115A in the PD-L1 IgV domain, on transfected COS cells (human) (UniProt Q9NZQ7); assay: flow cytometry on cells
[2] = target: PD-L1 IgV-TIM-3 chimera with K124S in the PD-L1 IgV domain, on transfected COS cells (human) (UniProt Q9NZQ7); assay: flow cytometry on cells

percent decrease in binding against the unmutated chimera [1]: 80%
percent decrease in binding against the unmutated chimera [2]: 80%
Substance: human B7–1-hIgG1 recombinant fusion protein (from UniProt P33681 35-242) (Fc fusion)
